In the DeepSol protein solubility set:

Assay: soluble on expression in E. coli; label from the status in PepcDB or PDB records

Row | Sequence | soluble on expression in E. coli
1 | MSLNSTFSIVDLETTAPFKEGGHIIQIGISFVKNWKIINNFQTMVNPGVKIPEQIVDLTGIKNEDVENAPYFEDLARMIHDQLSGTVFVAHNVRYDFPYLNGEFARIKMRRLRLEYVDTVQLAQIVFPTMNSYKLDELVSKLGINLPRHHRADQDASATAQLFLKIHEHLQEFPQNTLNNLINHSKSLLGNTETIFQLSKGKRTFPGDRYGPFDIARLKKIDKGQLIKWIEAKKQSSLSKPLPATVLRPRQESFANILQSKITGKNNKIFSVFSRPRFGKTNAYLDLAVKIAAKGYKILIIEENYLRRRSTFQKSQSLFPENKDLFQIPITRKDFVSLDKLADAFLTEDNPSRQLAKLRVISWLLKSRTGNLNEFVNGFPEPLFNFFSDQDSPNKFDYFERSISSYTFPSIAITDLDSFLRTKNEFSREYNLFIFDVDKGVSNLIDMLPFFSKKIILFTQAQSYIKNWYSIRDFSDMNSVILSLGSELKEGHHHHHH | not soluble
2 | GSHMASDLLELTEDMEKEISNALGHGPQDEILSSAFKLRITRGDIQTLKNYHWLNDEVINFYMNLLVERNKKQGYPALHVFSTFFYPKLKSGGYQAVKRWTKGVNLFEQEIILVPIHRKVHWSLVVIDLRKKCLKYLDSMGQKGHRICEILLQYLQDESKTKRNSDLNLLEWTHHSMKPHEIPQQLNGSDSGMFTCKYADYISRDKPITFTQHQMPLFRKKMVWEILHQQLL | soluble
3 | MGSDKIHHHHHHMRVLLLSDIHSSTQNLEKILKAAEYDAVFIAGDLTQFRPKDAKVVDEIISEQTDSCLAVHGNCDHEAILGEKYKALKFIHGKSVEFDGYTVHGVGGSGITPFNTPSEYTEREILEIMDNFVLRDFNILLSHCPPKGFLDRTYSGVHAGCEAIRERMIEFDVILCGHIHESHGVVDSPQLIVNPGPVMWGRFAVIDVEKKVVELRKL | not soluble
4 | MTDNPAVDKRDQILAAAEQLIAESGFQGLSMQKLANEAGVAAGTIYRYFSDKEHLLEEVRLNVAKRIASAVQAGVNDDMPLKECYRTMWLNIWNLAGSNLNAISNRVQYDSLPCTTRNKTWELERKMFAQVDRLFNQGKEEGVFKPLDNEVLSGLSFEASVALARKHALGFYQLDDDALEAAIEASWDAIIKH | soluble
5 | MRILHTADWHLGKTLEGRSRLSEQADVLDELNTIVKDEQIDAIVMAGDAFDTVNPPALAEQLFYESLSALSDRGKRPIVVIAGNHDNPDRLSAASPLTHENGIHLIGYPTTEPIHIEVPSAGELLAVGALAYPSEARLNEVLSDTFDEKLLRDHYDVKIRQAFEHMTSRFRTDAVKIAASHIYVAGGNQTDSDGPIEVGGAYTVAAESLPADAAYVALGHLHRPQTIKRARTLARYSGSPLAYSFSEAGYAKSVTIVDAKPGEEATWQEVLLSSGKPLVKWKAANGLSEVYSWLDEGRDQNAWIDLEIRVADQLSLEEIHRLRKAHPGFIHIRPVFEEQNKDRERIEVKHVSIEDRFKKFYEKQTGGAVPDEEMVRLFLELASGVEEEDAK | not soluble
6 | MGKEVMGKKENEMAQEKERPAGSQSLFRGLMLIEILSNYPNGCPLAHLSELAGLNKSTVHRLLQGLQSCGYVTTAPAAGSYRLTTKFIAVGQKALSSLNIIHIAAPHLEALNIATGETINFSSREDDHAILIYKLEPTTGMLRTRAYIGQHMPLYCSAMGKIYMAFGHPDYVKSYWESHQHEIQPLTRNTITELPAMFDELAHIRESGAAMDREENELGVSCIAVPVFDIHGRVPYAVSISLSTSRLKQVGEKNLLKPLRETAQAISNELGFTVRDDLGAIT | soluble
7 | MGSDKIHHHHHHMELPVVVQQALGDNAPGVSFRSVSQIDTGHLLRMVLLSDDQGNLQAICRRNDMLDLEALNKRLGRDLRMMQRREQVRVRQKAGLQELPALPSLTGWPTVVDRRVDELEAVALELGEQDLGLMMPAEDFRQLTAKAARHDFAVDTANISVNLDNHAADRDQLHSAIKRFTGLRIQQRLEDTLELPPLPETAQRIIHLRVNPNAVMGDLVDVVESDPSLAAQVVSWASSSFYAAAGRVHSVHDAVSRVLGFDLVMNLAMGLALGRALKHPQDHPDGYVDYWQQAIWQAQSAGILASMMPRGQRPLFGLAYLAGLLHNFGHLVLAQVFPPHFKLVCRSLEVSPHIDSSVIEHYLLGITREQIAAQLMENWGMPDEVTLAIRYQKNPAYDGPHNVYARLLWLGRQLLTERGVALGAGESATQAVYDELGLDRELVQEQFDELVRRKDSIMAMAGMMSQGG | not soluble
8 | DEGYWDCSVCTFRNSAEAFKCMMCDVRKGTSTRKPRPVSQ | soluble
9 | MGSDKIHHHHHHMGDLSDIRVFLAVAQQRSFTAAARQLSMTPPTVTRSVSALEQSLGVQLLLRTTRQVSLTSAGAVYAARVEPLIRQFDQVRDDLREEQGDVAGLIRINAPLSLGQQLLPDIVSGFRAEHPQVSVSLSLTDRFIDIVSERFDLALRVSEAPRDRSTIWRKVCRVRRILVASPGYLAIFGTPETPDDLSRHGCIAYDEEAISETWELTNGGRTRKALAGKVLAANNGELIAKLVEDGQGLALLPHFIVGDALASARRAEAGPCRVGASGALADIVLSALRETADARCEILGLLRKICYPYAPAVKKRRTQVLFSRRKASFPAKGEHMLQEFDDALRHASFESDLNGLYAALLLSRSFGSSESRIRSLGRSLPDLSQQKSRFVWRRE | not soluble
10 | GVVETPRSALKVTAQPNDVLLGNYVVLSPQTVLKSSKLAPVHPLAEQVKIITHNGRAGGYQVDGYDGRVLLPCGSAIPVPEFQALSESATMVYNEREFVNRKLYHIAVHGPSLNTDEENYEKVRAERTDAEYVFDVDKKCCVKREEASGLVLVGELTNPPFHEFAYEGLKIRPSAPYKTTVVGVFGVPGSGKSAIIKSLVTKHDLVTSGKKENCQEIVNDVKKHRGKGTSRENSDSILLNGCRRAVDILYVDEAFACHSGTLLALIALVKPRSKVVLCGDPKQCGFFNMMQLKVNFNHNICTEVCHKSISRRCTRPVTAIVSTLHYGGKMRTTNPCNKPIIIDTTGQTKPKPGDIVLTCFRGWAKQLQLDYRGHEVMTAAASQGLTRKGVYAVRQKVNENPLYAPASEHVNVLLTRTEDRLVWKTLAGDPWIKVLSNIPQGNFTATLEEWQEEHDKIMKVIEGPAAPVDAFQNKANVCWAKSLVPVLDTAGIRLTAEEWSTIITAFKEDRAYSPVVALNEICTKYYGVDLDSGLFSAPKVSLYYENNHWDNRPGGRMYGFNAATAARLEARHTFLKGQWHTGKQAVIAERKIQPLSVLDNVIPINRRLPHALVAEYKTVKGSRVEWLVNKVRGYHVLLVSEYNLALPRRRVTWLSPLNVTGADRCYDLSLGLPADAGRFDLVFVNIHTEFRIHHYQQCVDHAMKLQMLGGDALRLLKPGGILMRAYGYADKISEAVVSSLSRKFSSARVLRPDCVTSNTEVFLLFSNFDNGKRPSTLHQMNTKLSAVYAGEAMHTAGC | soluble
11 | MVPTPKPVVDRMLELADVDETDVLYDLGSGDGRIVIRAARTHGARGVGIEIDPDLVKKARKNAKEAGVADLVEFRQGDLFEADISEATVVTLYLLPSVNQKLRPILFEQLSPGTPVVSHDFDMGRWAPDRTVDLEGDTVYRWTIPLEHHHHHH | not soluble
12 | MLEALRKCPTMFAVTSDGSSTMAKMDNSARQLALFVATTNGEFYQSNFGEEALETIKYQLGKDAGWGLFFDVLRNAFNGNCVSILARSEDTAHILCGKEDCSEKSALCFPIQKTEEDTSATILKCLVDANAVYANPKEEKNKVQKIMEELEKAKLQVRMLEEEVRVLCENNIWRRKQDTKNTLKIGKLRDNISRLSNQINPKAKEVSETSVGETSGPHAEDSYIPGRKLLRLVFEKKECKEYDVELLRLIKSRWPKTEGSKACNASNCLIDPYTESELPERLSRMSKKHKMVWGTLNGLDDWDYNVFELQAAIDGDDINCKNDQSGCGALFITMYALVVKYGFLRKFEINERIFLNWLSAVEGGYHANPYHNSMHAADVLHITHYLLSKGGLAELCKLNDRQVLAALFAAAIHDYNHPGINNNFSILTQTYNATLYNDRSVLENMHVASVFELMRNPALNILACFSEEHWRDFRNTVIDMVLATDMSLHEKYMTQFKRRLSEKRPFTEDCDQNLALAMALKLADISNCCRPLPLYLKWSERVSDEFYTQGDRERSLGMSCSPFMDRQTPMIAEGQTSFINYIFIPFLEVMAEFLPSMGFTLGLAAVCKSHRLVGNTGQGT | not soluble
13 | MLELLYTALLYLIQPLIWIRLWVRGRKAPAYRKRWGERYGFYRHPLKPGGIMLHSVSVGETLAAIPLVRALRHRYPDLPITVTTMTPTGSERVQSAFGKDVQHVYLPYDLPDALNRFLNKVDPKLVLIMETELWPNLIAALHKRKIPLVIANARLSARSAAGYAKLGKFVRRLLRRITLIAAQNEEDGARFVALGAKNNQVTVTGSLKFDISVTPQLAAKAVTLRRQWAPHRPVWIATSTHEGEESVVIAAHQALLQQFPNLLLILVPRHPERFPDAINLVRQAGLSYITRSSGEVPSTSTQVVVGDTMGELMLLYGIADLAFVGGSLVERGGHNPLEAAAHAIPVLMGPHTFNFKDICARLEQASGLITVTDATTLAKEVSSLLTDADYRSFYGRHAVEVLYQNQGALQRLLQLLEPYLPPKTHLEHHHHHH | soluble
14 | MGSDKIHHHHHHMVVNMFEDIDTFEEAFNKLLREVLEFDLQNPFKDAKKVLCIEPHPDDCVIGMGGTIKKLSDMGVEVIYVCMTDGYMGTTDESLSGHELAAIRRKEEEESARLLGVKKIYWLNYRDTELPYSREVRKDLTKILRKEQPDGVFAPDPWLPYESHPDHRRTGFLAIESVAFSQLPNFSNTDLDIGLNPYNSGSFIALYYTHKPNYIVDITDLMELKLKAIRVHRSQFPDDIWEKWEPFLRTIAMFYGEKIGVRYGEGFRIMPGLFYHITPFTDLI | not soluble
15 | AMGTKSSAAVALKGLQFVTAKVGNDGWAAVEKRFNQLQVDGVLLRSRFGKCIGMDGSDEFAVQMFDSLARKRGIVKQVLTKDELKDFYEQLTDQGFDNRLRTFFDMVDKNADGRLTAEEVKEIIALSASANKLSKIKERADEYTALIMEELDPTNLGYIEMEDLEALLLQSPSEAAARS | soluble
16 | MSTQKRAIAKTDMLKFTETSQPIGQKKYVELSKDIFIFSYLCGGINFTDIANLTQENIVNGRLHYIRQKTGKLIKIGIPQEAMQIIKKYTDESNGYLFPILNVKVHKTALQKQNRIHKIRGKVNDILKTLGKRLGIEANITTYVARHSFASVLKKSGVNIALISEALGHSDLATTQIYLDSFDNEQVDEAMKNLLEHHHHHH | not soluble
17 | MTSNDADIKATVCVVTYNQVEYIEQCLQSLIDQITNFEFEIIVGDDFSTDGTRRIVEDFQRKYPHVIKPIFHSRNVGAAVNFNAVHGSARGKFVAHVDGDDYMLPNKLRSQVDFMERNPNCNISWHRMYVSYGSNIKEDLLDLNNFRQLCFTRADILKFITIGMNSSKMYRAETMNFQRPDFPMLDYFANVEQIGDGQACFISSEPLGVYRAGIGIAKNDFRVKEALNSSFLYFLSKYPKLSNEINQSVLLLLLMAFKNRRYTELSLFLKVYLKSFSFFTPWKLYKDYEFIKMLRLPKLEHHHHHH | not soluble
18 | MKNIKMPVLVLAAEKDHITPPESVTAFFEKIPSKDKKLLLSDKGHIGLTVSGSSHRKIWPEAIKWVVERSK | not soluble
19 | MKTGPLNESELEWLDDILTKYNTDHAILDVAELDGLLTAVLSSPQEIEPEQWLVAVWGGADYVPRWASEKEMTRFMNLAFQHMADTAERLNEFPEQFEPLFGLREVDGSELTIVEEWCFGYMRGVALSDWSTLPDSLKPALEAIALHGTEENFERVEKMSPEAFEESVDAIRLAALDLHAYWMAHPQEKAVQQPIKAEEKPGRNDPCPCGSGKKFKQCCLH | not soluble
20 | MNEQGVIFNSNGKQLVGIEHLPEPIHQGQTNKGVIIVVGGPQTRVGSHRLFVHLARALAKQRIVVFCFDYSGAGDSEGTVSTFTDIQDDIEAAFTPLSSAIVILLSWLDGAYAMLHRPFCFTSMSALNKRR | not soluble
